# Changes are numbered by the printed parent chain.
# B1: M0040-F03: Fab that binds human MMP-14; DNA LV SEQ ID NO: 96, HV SEQ ID NO: 97 (antibody, V domains shown)
# VL: QDIQMTQSPLSLPVTPGEPASISCRSGQSLLHSNGYNYLNWYLQKPGQSPQLLIYLGSYRASGVPDRFSGSGSGTDFTLKISRVEAEDVGLYYCMQALQTPLTFGVGTKVEIK
# VH: EVQLLESGGGLVQPGGSLRLSCAASGFTFSMYVMSWVRQAPGKGLEWVSSISSSGGNTGYADSVKGRFTISRDNSKNTLYLQMNSLRAEDTAVYYCAKSSLYYDILAGPGFDYWGQGTLVTVSS
# modifications: Synthetically generated oligonucleotide
# B2: M0040-G04: Fab that binds human MMP-14; DNA LV SEQ ID NO: 98, HV SEQ ID NO: 99 (antibody, V domains shown)
# VL: QSVLTQPPSASGTPGQRVTISCSGSRTNIGSDYVYWYQQLPGTAPKLLIYRNNERPSGVPDRFSGFKSGTSASLAISGLRSEDEADYYCASWDDRLSGPVFGGGTKLTVL
# VH: EVQLLESGGGLVQPGGSLRLSCAASGFTFSQYHMLWVRQAPGKGLEWVSVIVSSGGFTFYADSVKGRFTISRDNSKNTLYLQMNSLRAEDTAVYYCARSYGGDAFDIWGQGTMVTVSS
# modifications: Synthetically generated oligonucleotide
# B3: M0040-H04: Fab that binds human MMP-14; DNA LV SEQ ID NO: 100, HV SEQ ID NO: 101 (antibody, V domains shown)
# VL: QDIQMTQSPDSLAVSLGERATLNCRSSQSVLYSPNNKNYLAWYQQKAGQPPKLLIYWASFRESGVPERFSGSGSGTDFTLTISSLQAEDVAVYYCQQYHTPPWTFGQGTKVEIK
# VH: EVQLLESGGGLVQPGGSLRLSCAASGFTFSSYDMVWVRQAPGKGLEWVSSISPSGGNTQYADSVKGRFTISRDNSKNTLYLQMNSLRAEDTAVYYCAKVAAMAPWYFDYWGQGTLVTVSS
# modifications: Synthetically generated oligonucleotide
# B4: M0040-H09: Fab that binds human MMP-14; DNA LV SEQ ID NO: 102, HV SEQ ID NO: 103 (protein)
# chain 1: QSELTQDPAVSVALGQAVIITCQGDSLRTYYPSWYQQKPGQAPTLLVYGKNKRPSGVPDRFSGSRSGDTASLIITGAQAEDDADYYCNSRDGSGHLFVFGPGTTVTVL
# chain 2: EVQLLESGGGLVQPGGSLRLSCAASGFTFSLYPMQWVRQAPGKGLEWVSYIRSSGGKTHYADSVKGRFTISRDNSKNTLYLQMNSLRAEDTAVYYCARVGMGSGWYTGYFDLWGRGTLVTVSS
# modifications: Synthetically generated oligonucleotide
# B5: M0041-A05: Fab that binds human MMP-14; DNA LV SEQ ID NO: 104, HV SEQ ID NO: 105 (antibody, V domains shown)
# VL: QDIQMTQSPSSLSASVGDRVTITCRASQNINSYLNWYQQKPGKAPKLLIYAASSLQSGVPSRFSGSGSGTDFTLTISSLQPEDFVTYYCQQSYSTPKTFGQGTKVEIK
# VH: EVQLLESGGGLVQPGGSLRLSCAASGFTFSVYTMHWVRQAPGKGLEWVSVIYPSGGLTIYADSVKGRFTISRDNSKNTLYLQMNSLRAEDTAVYYCARNRGYYAPMDVWGQGTTVTVSS
# modifications: Synthetically generated oligonucleotide
# B6: M0041-B03: Fab that binds human MMP-14; DNA LV SEQ ID NO: 106, HV SEQ ID NO: 107 (antibody, V domains shown)
# VL: QDIQMTQSPATLSASVGDRVTISCRASQNISNWLAWYQQKPGKAPKLLIYTASTLHRGVPSRFSGSGSGTDFTLTITSLQPEDFATYYCQQANTFPWTFGQGTKVEIK
# VH: EVQLLESGGGLVQPGGSLRLSCAASGFTFSMYMMWWVRQAPGKGLEWVSVISSSGGFTSYADSVKGRFTISRDNSKNTLYLQMNSLRAEDTAVYYCARLRYSNFVGGLDVWGQGTTVTVSS
# modifications: Synthetically generated oligonucleotide
# B7: M0041-B11: Fab that binds human MMP-14; DNA LV SEQ ID NO: 108, HV SEQ ID NO: 109 (antibody, V domains shown)
# VL: QSVLTQDPAVSVALGQTVRITCQGDSLRSYSASWYQRKPGQAPLLVIYRKTNRPSGIPDRFSGSSSGNTASLTITGAQAEDESDYYCNSRDSSGNHLFGGGTKLTVL
# VH: EVQLLESGGGLVQPGGSLRLSCAASGFTFSQYSMHWVRQAPGKGLEWVSSIVPSGGMTAYADSVKGRFTISRDNSKNTLYLQMNSLRAEDTAVYYCAKISRGNDAFDIWGQGTMVTVSS
# modifications: Synthetically generated oligonucleotide
# B8: M0041-C11: Fab that binds human MMP-14; DNA LV SEQ ID NO: 110, HV SEQ ID NO: 111 (antibody, V domains shown)
# VL: QDIQMTQSPSSLSASVGDRVTITCRASQRIGSYLNWYQQNSGKAPRLLIYGASNLESGVPSRFSGRGSGTDFTLTISSLQPEDFATYYCQQSNSTPHTFGQGTKVEIK
# VH: EVQLLESGGGLVQPGGSLRLSCAASGFTFSQYPMSWVRQAPGKGLEWVSSIGPGGWTWYADSVKGRFTISRDNSKNTLYLQMNSLRAEDTAVYYCARTATRIFGVVIMGRAFDIWGQGTMVTVSS
# modifications: Synthetically generated oligonucleotide
# B9: M0041-D03: Fab that binds human MMP-14; DNA LV SEQ ID NO: 112, HV SEQ ID NO: 113 (antibody, V domains shown)
# VL: QDIQMTQSPSSLSASVGDRITVTCRASQSITNYLNWYQQKPGKAPKLLIYAASTLQSGVPSRFSGSGSGTDFTLTISRLEPEDFAVYYCQQYGSSPTFGQGTKVEVK
# VH: EVQLLESGGGLVQPGGSLRLSCAASGFTFSFYNMTWVRQAPGKGLEWVSSIYSSGGNTDYADSVKGRFTISRDNSKNTLYLQMNSLRAEDTAVYYCARDSLSHYYYGMDVWGQGTTVTVSS
# modifications: Synthetically generated oligonucleotide
# B10: M0041-E11: Fab that binds human MMP-14; DNA LV SEQ ID NO: 116, HV SEQ ID NO: 117 (protein)
# chain 1: QDIQMTQSPSSLSAFVGDRVIITCRASQDISVYVNWYQQSSGKAPKLLIYGASSLQSGVPSRFSGSGSGTDFTLTISSLQPEDFASYFCQQSYNLPFTFGGGTNVQIK
# chain 2: EVQLLESGGGLVQPGGSLRLSCAASGFTFSQYNMQWVRQAPGKGLEWVSGIVPSGGWTPYADSVKGRFTISRDNSKNTLYLQMNSLRAEDTAVYYCARGVRYGLDYWGQGTLVTVSS
# modifications: Synthetically generated oligonucleotide
# B11: M0041-H09: Fab that binds human MMP-14; DNA LV SEQ ID NO: 118, HV SEQ ID NO: 119 (antibody, V domains shown)
# VL: QDIQMTQSPGTLSLSPGERATLSCRASQSLSGDYLAWYQQKIGQAPRLLIFGASRRPTGIPDRFSGSGSGTDFALTISRLEPEDFAVYYCQQYGSLITFGQGTRLEIK
# VH: EVQLLESGGGLVQPGGSLRLSCAASGFTFSVYEMTWVRQAPGKGLEWVSGIGSSGGMTFYADSVKGRFTISRDNSKNTLYLQMNSLRAEDTAVYYCARIRYSGSYGWHYMDVWGKGTTVTVSS
# modifications: Synthetically generated oligonucleotide
# B12: M0041-H11: Fab that binds human MMP-14; DNA LV SEQ ID NO: 120, HV SEQ ID NO: 121 (antibody, V domains shown)
# VL: QSELTQDPAVSVALGQTVRITCQGDSLRSYYASWYQQKPGQAPVLVIYGKNNRPSGIPDRFSGSSSGNTASLTITGAQAEDEADYYCNSRDSSGNHVVFGGGTKLTVL
# VH: EVQLLESGGGLVQPGGSLRLSCAASGFTFSMYPMNWVRQAPGKGLEWVSSISSSGGWTKYADSVKGRFTISRDNSKNTLYLQMNSLRAEDTAVYYCARVFFGYDSSGYPYYYYGMDVWGQGTTVTVSS
# modifications: Synthetically generated oligonucleotide
# B13: M0042-B07: Fab that binds human MMP-14; DNA LV SEQ ID NO: 122, HV SEQ ID NO: 123 (antibody, V domains shown)
# VL: B1 VL with G27S, N40D, L43V, Y59G, S82N, L91V, L102W, V106Q
# VH: EVQLLESGGGLVQPGGSLRLSCAASGFTFSPYSMFWVRQAPGKGLEWVSVIYPSGGGTIYADSVKGRFTISRDNSKNTLYLQMNSLRAEDTAVYYCARSRESCDADTCYQYFQEWGQGTLVTVSS
# modifications: Synthetically generated oligonucleotide
# B14: M0043-A09: Fab that binds human MMP-14; DNA LV SEQ ID NO: 126, HV SEQ ID NO: 127 (antibody, V domains shown)
# VL: QSVLTQPPSVSKDLRQTATLTCTGNSNNVGYQGAAWLQQHQGHPPKVLSYRNNNRPSGISERFSASRSGNTASLTITGLQPEDEADYYCSAWDSSLTAWVFGGGTKLTVL
# VH: EVQLLESGGGLVQPGGSLRLSCAASGFTFSFYDMTWVRQAPGKGLEWVSSIWSSGGVTDYADSVKGRFTISRDNSKNTLYLQMNSLRAEDTAVYYCTRASSGYYDAFDIWGQGTMVTVSS
# modifications: Synthetically generated oligonucleotide
# B15: M0043-C03: Fab that binds human MMP-14; DNA LV SEQ ID NO: 128, HV SEQ ID NO: 129 (antibody, V domains shown)
# VL: QDIQMTQSPASLYLSPGERATLSCRASQSVSSNLAWYQQKPGQAPRLLIYGASTRATGIPARFSGSGSGTEFTLTISSLQSADFAVYYCQQYDNWPPLTFGGGTKVEIK
# VH: EVQLLESGGGLVQPGGSLRLSCAASGFTFSYYAMDWVRQAPGKGLEWVSSIGSSGGDTVYADSVKGRFTISRDNSKNTLYLQMNSLRAEDTATYYCARDPRQPGVFDYWGQGTLVTVSS
# modifications: Synthetically generated oligonucleotide
# Molecular target: MMP-14 (Homo sapiens, UniProt P50281)
# Assay: Selection and phage ELISA screening of anti-MMP-14 Fabs
# Assay type: binding
# Conditions: Fab from FAB310 phage display library
# Procedure, shortened: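 Phage ELISA screened 95 clones from each of rounds 2 and 3 against biotinylated MMP-14 (1 μg/ml) captured on streptavidin, in TRIS/CaCl2/NaCl pH 7.5. The clones came from Fab library selections on biotinylated MMP-14, either free or TIMP-2-complexed (500 nM round 1, 100 nM later rounds). Elution used 2.5 μM TIMP-2 followed by TEA.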
row,bind to human MMP-14,Molecule
1,bind to human MMP-14,B1
2,bind to human MMP-14,B2
3,bind to human MMP-14,B3
4,bind to human MMP-14,B4
5,bind to human MMP-14,B5
6,bind to human MMP-14,B6
7,bind to human MMP-14,B7
8,bind to human MMP-14,B8
9,bind to human MMP-14,B9
10,bind to human MMP-14,B10
11,bind to human MMP-14,B11
12,bind to human MMP-14,B12
13,bind to human MMP-14,B13
14,bind to human MMP-14,B14
15,bind to human MMP-14,B15

# — patent US8106168B2, “Metalloproteinase binding proteins” (Dyax Corp., priority 2005, dated 2012)
